In patent US20160159888A1 (CANCER RESEARCH TECHNOLOGY, published 2016):

How the values were obtained:
h S100B = target: T1, h S100B (human, UniProt P04271); test: Western blot of purified S100 proteins on PVDF membrane
T1 construct: purified protein on a PVDF membrane; one of the 'other S100 family members'; also called human S100B
T1 sequence (looked up): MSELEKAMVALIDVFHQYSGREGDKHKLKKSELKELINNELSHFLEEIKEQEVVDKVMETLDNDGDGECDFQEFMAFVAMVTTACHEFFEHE

h S100A12 = target: T2, h S100A12 (human, UniProt P80511); test: as above
T2 construct: purified protein on a PVDF membrane; one of the 'other S100 family members'; no amido black loading band is visible for this lane in the scan; also called human S100A12
T2 sequence (looked up): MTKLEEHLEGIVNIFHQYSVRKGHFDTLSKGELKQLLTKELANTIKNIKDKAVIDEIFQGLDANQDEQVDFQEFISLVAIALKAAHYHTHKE

h S100A5 = target: T3, h S100A5 (human, UniProt P33763); test: as above
T3 construct: purified protein on a PVDF membrane; one of the 'other S100 family members'; also called human S100A5
T3 sequence (looked up): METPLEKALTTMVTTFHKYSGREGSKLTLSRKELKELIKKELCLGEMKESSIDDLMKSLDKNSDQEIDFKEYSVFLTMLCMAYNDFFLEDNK

h S100A1 = target: T4, h S100A1 (human, UniProt P23297); test: as above
T4 construct: purified protein on a PVDF membrane; one of the 'other S100 family members'; also called human S100A1
T4 sequence (looked up): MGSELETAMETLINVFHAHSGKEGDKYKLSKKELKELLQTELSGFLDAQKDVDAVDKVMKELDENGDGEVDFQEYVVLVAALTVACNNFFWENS

h S100A9 = target: T5, h S100A9 (human, UniProt P06702); test: as above
T5 construct: purified protein on a PVDF membrane; one of the 'other S100 family members'; also called human S100A9
T5 sequence (looked up): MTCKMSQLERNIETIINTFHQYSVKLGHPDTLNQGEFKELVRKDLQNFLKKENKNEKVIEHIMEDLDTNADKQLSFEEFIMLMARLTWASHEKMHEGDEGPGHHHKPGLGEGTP

h S100A2 = target: T6, h S100A2 (human, UniProt P29034); test: as above
T6 construct: purified protein on a PVDF membrane; one of the 'other S100 family members'; its amido black loading band is very faint in the scan; also called human S100A2
T6 sequence (P29034 whole entry, one chain of several): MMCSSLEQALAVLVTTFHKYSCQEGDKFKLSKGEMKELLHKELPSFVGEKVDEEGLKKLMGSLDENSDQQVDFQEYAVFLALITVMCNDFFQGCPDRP

[1] = target: T7, S100A4 peptide 7 (RDNEVDFQEYCV, 12-mer: 66-77) (human); test: peptide ELISA (FIG. 4A)
T7 construct: also called P7
T7 peptide: RDNEVDFQEYCV

[2] = target: T8, S100A4 peptide 8 (FLSCIAMMCNEF, 12-mer: 78-89) (human); test: peptide ELISA (FIG. 4A)
T8 construct: also called P8
T8 peptide: FLSCIAMMCNEF

mouse S100A4 protein = target: T9, mouse S100A4 protein (mouse, UniProt P07091 2-101, limits assumed); test: ELISA screen of hybridoma clones on mouse S100A4
T9 construct: also called murine S100A4; recombinant mouse S100A4 protein
T9 sequence (P07091 2-101 limits assumed, one chain of several): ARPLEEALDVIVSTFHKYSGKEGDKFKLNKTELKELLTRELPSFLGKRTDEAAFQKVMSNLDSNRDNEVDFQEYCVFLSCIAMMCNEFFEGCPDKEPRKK

pep 4 = target: T10, pep 4; test: peptide ELISA, absorbance 450 nm (Pep-BG)
T10 construct: also called S100A4 peptide 4; #4 (11-mer: 32-42)
T10 chain: SELKELLTREL

pep 6 = target: T11, pep 6; test: peptide ELISA, absorbance 450 nm (Pep-BG)
T11 construct: also called S100A4 peptide 6; #6 (12-mer: 54-65)
T11 chain: AFQKLMSNLDSN

[3] = target: T12, S100A4 peptide 9 (FEGFPDKQPRKK, 12-mer: 90-101) (human); test: peptide ELISA, absorbance 450 nm (Pep-BG)
T12 construct: also called P9; C-terminal peptide
T12 peptide: FEGFPDKQPRKK

pep 5 = target: T13, pep 5; test: peptide ELISA, absorbance 450 nm (Pep-BG)
T13 construct: also called S100A4 peptide 5; #5 (11-mer: 43-53)
T13 chain: PSFLGKRTDEA

pep 3 = target: T14, pep 3; test: peptide ELISA, absorbance 450 nm (Pep-BG)
T14 construct: also called S100A4 peptide 3; #3 (11-mer: 21-31)
T14 chain: GKEGDKFKLNK

pep 2 = target: T15, pep 2; test: peptide ELISA, absorbance 450 nm (Pep-BG)
T15 construct: also called S100A4 peptide 2; #2 (10-mer: 11-20)
T15 chain: VMVSTFHKYS

pep 1 = target: T16, pep 1; test: peptide ELISA, absorbance 450 nm (Pep-BG)
T16 construct: also called S100A4 peptide 1; #1 (10-mer: 1-10)
T16 chain: MACPLEKALD

[4] = target: T17, recombinant S100A4 protein (species not stated for the experiment); test: SPR (BIAcore 2000), S100A4 amine-coupled to CM5 chip, mAb injected, 1:1 fit
T17 construct: also called immobilized S100A4; oligomeric S100A4
T17 sequence (P07091 whole entry): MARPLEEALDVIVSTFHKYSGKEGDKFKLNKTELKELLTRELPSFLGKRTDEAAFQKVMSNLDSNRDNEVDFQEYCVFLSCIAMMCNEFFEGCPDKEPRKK
Experimental: All SPR analyses were conducted on a BIAcore 2000 system (GE-Healthcare Life Sciences, Upsala, Sweden). The experiments were performed at 25° C. using HBST/Ca (10 mM HEPES, 150 mM NaCl, 0.005% Tween® and 50 μM CaCl2) as running buffer. The S100A4 protein was immobilized on a sensor chip CM5 (GE-Healthcare, BR-1000-12) using the amine coupling kit from GE Healthcare (BR-1000-50). The flow rate was set to 5 μl/min. The flow cells were activated individually by injecting 35 μl freshly mixed 0.4 M EDC ((N-(3-dimethylaminopropyl)-N′-ethylcarbodiimide hydrochloride) in 0.05 M NHS (N-hydroxysuccinimide) solution. Then 5 μg/ml S100A4 protein diluted in 10 mM acetic acid, pH 5.0 was injected for 1 to 10 minutes until the desired level of immobilization was reached (about 400 to 800 RU). The remaining active groups were deactivated by injecting 35 μl 1 M ethanolamine (pH 8.5). All experiment included a reference surface which was prepared by activating and deactivating of the surface of flow cell 1 (FC1). The blank surface reference was used to correct for bulk effects and nonspecific binding. The channel referencing was done automatically by the BIACORE 2000 control software.
The injections were performed using the KINJECT mode (injection10 min, dissociation 20-30 min). The flow rate during injection and regeneration was kept at 50 μl/min. […]

human S100A4 protein = target: T18, human S100A4 protein (human, UniProt P26447 2-101, limits assumed); test: Western blot of recombinant proteins and of cell extracts (FIG. 1)
T18 construct: Recombinant protein on blots and endogenous protein in extracts of human cell lines; also called human S100A4 recombinant protein
T18 sequence (P26447 2-101 limits assumed, one chain of several): as the sequence (P07091 2-101 limits assumed, one chain of several) above, with R2C, E6K, I11M, T31S, V57L, C92F, E96Q counted along it

binding result (h S100B): no binding
binding result (h S100A12): no binding
binding result (h S100A5): no binding
binding result (h S100A1): no binding
binding result (h S100A9): no binding
binding result (h S100A2): no binding
binding result [1]: binds
binding result [2]: binds
binding result (mouse S100A4 protein): binds
binding result (pep 4): no binding
binding result (pep 6): no binding
binding result [3]: no binding
binding result (pep 5): no binding
binding result (pep 3): no binding
binding result (pep 2): no binding
binding result (pep 1): no binding
Kd [4]: 0.114 nM
kon [4]: 287000 M⁻¹ s⁻¹
binding result (human S100A4 protein): binds
B1: anti-S100A4 mouse monoclonal antibody, clone 6B12 (antibody, V domains shown)
VH: DVQLQESGPGLVKPSQSLSLTCSVTGDSFTNDYYWNWIRQFPGSKLEWMGHIGYGGNINYNPSLKNRISITRDTSKNQFFLRLTSVTTEDTATYYCTRESFYDGYPFDYWGQGTLVTVSA
VL: DIQMTQTTSSLSASLGDRVTISCRASQDIRNYLNWYQQRPGGTLKLLIYYTSRLHSGVPSRFSGSGSGTDYSLTISNLEQEDIATYFCQQGNSLPRTFGGGTKLEIK
notes: constant regions are not; also called 6B12 mAb; mAb 6B12
